In US20060058229A1, “Peptides and methods for cell death regulation” (priority 2002, published 2006):

Assays:
XIAP [1] = target: T1, XIAP (Homo sapiens, UniProt P98170); test: In vitro XIAP self-conjugation assay; type: biochemical
T1 construct: Full length xiap was amplified by PCR and subcloned into the EcoRI, ApaI site of this pcDNA3; made in house; host or cells: in vitro transcription-translation system (Promega); UBCH5C from E. coli BL21 (pLysS)
Method: IAP-E2 Binding Assay for Measuring Self-Conjugation
^35S-methionine labeled DIAP1 or XIAP was generated in an in vitro transcription-translation system (Promega) from diap1-pET14b and xiap-pcDNA3.1 respectively. For purification of His-UBCD1 and His-UBCH5C, ubcD1-pET14b and ubcH5C-pT7-7 were expressed in BL21 (pLysS) and purfied on a Ni-column according to the manufacturer's protocol (Novagen). ^35S-DIAP1 or ^35S-XIAP was incubated with purified UBCD1 or UBCH5C respectively in the absence or presence of the W-7, H2-9 or H2-9W7 peptides. Following incubation of 15 min in room temperature in 20 mM Tris pH7.6, 2 mM DTr, Ni-NTA Agarose beads (Qiagen) were added for additional 30 minutes. The beads were subsequently washed four times with the Tis/DTT buffer, eluted with Laemli buffer and subjected to 10% SDS-PAGE. ^35S-DIAP1 or ^35S-XIAP was visualized by Phosphorimaging.
^35S-methionine labeled mutant and wild type DIAP1, or wild type XIAP were generated in an in vitro transcription-translation system (Promega) from diap1-pET14b, diap1^21-4S pET14b and xiap pcDNA3.1 plasmids. For purification of His-UBCD1 and His-UBCH5C, ubcD1-pET14b and ubcH5C-pT7-7 were expressed in BL21 (pLysS) and purified on a Ni-column according to the manufacturer's protocol (Novagen). […]

[2] = target: His-DIAP1 21-4S mutant (RING domain mutant, Cys 406 to Tyr), 35S-methionine labeled, in vitro translated from diap1 21-4S pET14b (UniProt Q24306)
[3] = target: DIAP1 (Drosophila IAP1), wild type, 35S-methionine labeled, in vitro translated from diap1-pET14b (UniProt Q24306)
DIAP1 [4] = test: In vitro ubiquitination reaction / self-conjugation of 35S-DIAP1; type: biochemical, Drosophila; conditions: 35S-DIAP1 with E1 and ubiquitin
Method: (§1) In Vitro Ubiquitination Reaction
^35S-methionine labeled mutant and wild type DIAP1, or wild type XIAP were generated in an in vitro transcription-translation system (Promega) from diap1-pET14b, diap1^21-4S pET14b and xiap pcDNA3.1 plasmids. For purification of His-UBCD1 and His-UBCH5C, ubcD1-pET14b and ubcH5C-pT7-7 were expressed in BL21 (pLysS) and purified on a Ni-column according to the manufacturer's protocol (Novagen). In vitro ubiquitination assays were carried out in a total volume of 12.5 μl and contained: ^35S-methionine labeled wild type or mutant DIAP1 or Wild type XIAP (approximately 10,000 cpm), and 250 ng E1 (made in baculovirus; vector is the kind gift of Dr. Kaznbiro Iwai, University of Osaka, Osaka Japan). […]
In order to determine whether both amino acid consensus sequences described above are essential for IAP degradation; peptides were generated, with amino acid sequences as described in Tables 1, 3 and 5 above, containing one of each amino acid consensus sequence, or both and their ability to stimulate in vitro IAP ubiquitination was assessed (FIG. 13). ^35S-methionine labeled wild type DIAP1 was incubated with 250 ng E1 and ubiquitin, with or without the addition of the RPR wild type protein, or peptides containing the RHG amino acid consensus sequence of the RPR HID or GRIM proteins, and the reaction products were resolved by SDS-PAGE.

Diap1 in Cos-7 cells = target: T2, Diap1 in Cos-7 cells (Drosophila melanogaster, UniProt Q24306); test: Cellular stability of DIAP1 (cycloheximide chase, Western blot); type: cell-based; conditions: Cos-7 cells co-transfected with Diap1-Flag and RPR-HA, cycloheximide 30 minute chase
T2 construct: expressed in transfected cells; host or cells: Cos-7
T2 sequence (Q24306 1-438): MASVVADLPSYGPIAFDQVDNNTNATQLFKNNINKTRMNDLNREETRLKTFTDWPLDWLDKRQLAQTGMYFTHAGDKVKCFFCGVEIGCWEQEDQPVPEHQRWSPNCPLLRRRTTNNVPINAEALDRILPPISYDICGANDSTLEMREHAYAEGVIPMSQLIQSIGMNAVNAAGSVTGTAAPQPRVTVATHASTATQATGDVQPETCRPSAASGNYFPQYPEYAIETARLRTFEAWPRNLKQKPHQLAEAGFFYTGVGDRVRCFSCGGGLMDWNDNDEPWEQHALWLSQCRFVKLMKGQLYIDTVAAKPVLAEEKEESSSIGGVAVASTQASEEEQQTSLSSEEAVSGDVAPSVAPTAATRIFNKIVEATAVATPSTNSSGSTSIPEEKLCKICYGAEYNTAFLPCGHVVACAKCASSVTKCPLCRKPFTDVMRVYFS
Method: Cellular Stability of DIAP1
Cos-7 cells were transfected with 1 μg of wild-type (wt) Diap1-Flag-pcDNA3 along with 1 μg RPR-HA-pcDNA3 or 1 μg pcDNA3 vector (to maintain an equal amount of DNA in all transfections). Transfections were carried out by using FuGene™. 30 h aer transfection, 100 μg cycloheximide (Sigma) was added to each 60 mm dish for 0, 30, 60 min. Cells were harvested and lysed. Equal amount of protein were resolved via SDS-PAGE (10%) and blotted onto riocellulose paper. Diap1 was monitored by Western blot analysis using anti-Diap1 antibody and ECL.
In order to determine the effect of the IAP inhibitor (IAPi), Reaper's expression on IAP protein stability, a pulse-chase experiment was conducted using Cos-7 cells co-transfected with Diap1-Flag-pcDNA3 and RPR-HA-pcDNA3 or pcDNA3 vector alone treated with cycloheximide for 0, 30 or 60 minutes, followed by cell lysis, and immunoblot analysis.

XIAP [5] = target: T1, XIAP; test: In vitro ubiquitination reaction of 35S-XIAP; type: biochemical
Method: as §1
^35S-methionine labeled mutant and wild type DIAP1, or wild type XIAP were generated in an in vitro transcription-translation system (Promega) from diap1-pET14b, diap1^21-4S pET14b and xiap pcDNA3.1 plasmids. For purification of His-UBCD1 and His-UBCH5C, ubcD1-pET14b and ubcH5C-pT7-7 were expressed in BL21 (pLysS) and purified on a Ni-column according to the manufacturer's protocol (Novagen). In vitro ubiquitination assays were carried out in a total volume of 12.5 μl and contained: ^35S-methionine labeled wild type or mutant DIAP1 or Wild type XIAP (approximately 10,000 cpm), and 250 ng E1 (made in baculovirus; vector is the kind gift of Dr. Kaznbiro Iwai, University of Osaka, Osaka Japan). Unless otherwise stated, 1.2 μg His-UBCD1 or His-UBCH5C was used in each reaction Reaction mire contained also 40 mM Tris-HCl, pH 7.6, 5 mM MgCl2, 1 mM DTT, 5 μg ubiquitin, 100 ng Ubiquitin-aldehyde, 2 mM ATPγS [Adenosine 5′-O-(3-thiotriphosphate)]. Reactions were incubated for 50 min at 37° C., and resolved, following addition of a sample buffer on SDS-PAGE (10%). Gels were dried and proteins visualized via Phosphorimaging (Fuji, Japan).

DIAP1 [6] = test: Ectopic expression (Gal4/UAS) in Drosophila imaginal discs and embryos, anti-DIAP1 labeling; type: in vivo
Description: Mitotic recombination was induced in the developing eye imaginal discs using the Flp-FRT method36 and ey-flipase. Gal4/UAS system was used for ectopic expression.
GST-DIAP16 was expressed in BL21 (pLysS) bacteria, and was gel purified before immunizing rabbits (Cocalico Biologicals). diap1(WT)-pET14b was used to express His-DIAP1 in BL21(pLysS) and was purified according to the manufacturer's protocol (Novagen) and immobilized on nitrocellulose paper to affinity purify anti-DIAP1 antisera Rabbit anti-β-galactosidase antibody (Cappel, ICN), mouse-anti-β-gatosdase antibody (Sigma), monoclonal anti-Engrailed antibody (Developmental Studies Hybridoma Bank), Rabbit CM1 antibody24 and mouse anti-HA antibody (Babco) were used to stain embryos and imaginal discs under standard conditions. For western blots, 6-18 h hour embryos were homogenized in the lysis buffer (20 mM Tris pH 7.5, 100 mM NaCl, 1% NP-40, 2 mM DTT) and the cell debns was spun down. The supernatant was run on 15% SDS-PAGE gels, transferred to nitrocellulose sheets and probed with Rabbit anti-DIAP1 antibody. Western blot was detected with ECL (Amersham).
IAP degradation in thymocytes is a regulated process, wherein glucocorticoids can trigger IAP degradation by unknown mechanisms. To determine whether DIAP1 degradation is also regulated in Drosophila, we co-expressed the cell death promoting protein RPR and the baculovirus p35 caspase inhibitor^21 in the wing imaginal disc posterior compartment using the engrailed (en)-Gal4 driner^22. Expression of p35 prevented RPR-expressing cells from dying, and the resulting cell population not undergoing apoptosis enabled us to observe cellular changes downstream of RPR. Whereas animals expressing RPR alone died as embryos, those compressing RPR and p35 survived to adulthood with wings indistinguishable from wild type (FIG. 2a). […] The wing imaginal discs were also labeled with CM1 antibody, which detects activated caspase-3 in humans and cross-reacts with activated caspases in Drosophila^23,24. In the control anterior compartment, sporadic apoptotic cells were intensely labeled with CM1.
Thus, the effect of the RING finger mutations on RPR-dependent DIAP1 degradation in embryos was determined. The protein distribution of DIAP1 was analyzed in embryos that express RPR under the prd-Gal4 driver (FIG. 3a, c). In wild type embryos, DIAP1 is homogenously distributed (FIG. 3b).

T1 sequence (P98170 whole entry): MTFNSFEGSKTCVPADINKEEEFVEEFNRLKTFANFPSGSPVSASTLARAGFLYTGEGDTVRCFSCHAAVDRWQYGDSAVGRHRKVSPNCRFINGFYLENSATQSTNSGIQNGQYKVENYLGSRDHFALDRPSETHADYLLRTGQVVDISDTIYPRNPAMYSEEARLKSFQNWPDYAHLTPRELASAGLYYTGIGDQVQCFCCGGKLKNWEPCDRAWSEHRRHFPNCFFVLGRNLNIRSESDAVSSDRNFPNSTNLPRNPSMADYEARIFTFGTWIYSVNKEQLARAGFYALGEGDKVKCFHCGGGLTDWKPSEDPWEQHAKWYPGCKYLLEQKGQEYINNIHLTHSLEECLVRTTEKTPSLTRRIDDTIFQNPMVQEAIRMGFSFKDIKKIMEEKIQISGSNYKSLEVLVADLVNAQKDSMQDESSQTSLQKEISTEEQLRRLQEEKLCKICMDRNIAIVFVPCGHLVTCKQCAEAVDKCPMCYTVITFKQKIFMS

AVPFYLPE QWRFLATVVL (AVPFYLPEQWRFLATVVL; Drosophila melanogaster) [Peptide H9-W]
XIAP self-conjugation in vitro (XIAP [1]): greatest effect

AVAPYIPDQATLLR QWRFLATVVL (AVAFYIPDQATLLRQWRFLATVVL; Drosophila melanogaster) [Peptide R15W]
XIAP self-conjugation in vitro (XIAP [1]): greatest effect

His-UBCD1 (Drosophila ubiquitin conjugating enzyme UbcD1, purified from E. coli)
in vitro ubiquitination of 35S-DIAP1 (E1, His-UBCD1, ubiquitin; SDS-PAGE, Phosphorimaging) [2]: the His-DIAP1^21-4S mutant (RING domain mutant) did not (lane 7), in the presence of ubcD1
in vitro ubiquitination of 35S-DIAP1 (E1, His-UBCD1, ubiquitin; SDS-PAGE, Phosphorimaging) [3]: Wild-type DIAP1 (lane 4) showed marked ubiquitination

B1: Reaper: Drosophila IAP inhibitor (IAPi) protein REAPER, wild type; used as protein or expressed from a transgene/plasmid (protein)
chain: MAVAFYIPDQATLLREAEQKEQQILRLRESQWRFLATVVLETLRQYTSCHPKTGRKSGKYRKPSQ
IAP (DIAP1) self-conjugation / auto-ubiquitination in vitro (DIAP1 [4]): resulted in auto-ubiquitination
IAP (Diap1) protein level / half-life (Diap1 in Cos-7 cells): dramatic reduction in detectable IAP protein
auto-ubiquitination of human XIAP (XIAP [5]): strongly stimulated
DIAP1 downregulation in embryos (DIAP1 [6]; RING domain mutant background, diap1 33-1S and diap1 22-8S alleles): no longer able to downregalate DIAP1
DIAP1 protein levels in embryos (DIAP1 [6]; expression under prd-Gal4 driver, wild type diap1): DIAP1 protein levels decrease
diap1-lacZ expression (DIAP1 [6]; wing imaginal disc posterior compartment, co-expressed with p35 under en-Gal4): increased
anti-DIAP1 labeling (DIAP1 [6]; wing imaginal disc posterior compartment, co-expressed with p35 under en-Gal4, compared to anterior compartment): reduced anti-DIAP1 labeling
